According to patent publication US20260263609A1 (NEW YORK UNIVERSITY, published 2026):
Numbering of substitutions follows the chain as printed.

B1: Mb(NRAS_24) (designed binder)
chain: VSSVPTKLEVVAATPTSLLISWDAPAVTVDFYVITYGETGGYAWAYQEFKVPGSKSTATISGLSPGVDYTITVYAYQVIGAIWKYYSPISINYRT
B2: Mb(NRAS_20) (designed binder)
chain: B1 chain with G41A, A43Y, W44P, A45Y, Y46A
B3: Mb(NRAS_19) (designed binder)
chain: B1 chain with G41S, A43Y, W44P, A45Y, Y46A
B4: Mb(NRAS_24) with the FG loop of SEQ ID NO: 58 (designed binder)
chain: B1 chain with G80S, A81S
notes: length of the loop entry not visible
B5: Mb(NRAS_24) with the FG loop of SEQ ID NO: 54 (designed binder)
chain: B1 chain with G80R, A81H
notes: as for B4
B6: Mb(NRAS_24) with the FG loop of SEQ ID NO: 57 (designed binder)
chain: B1 chain with G80S, A81H
notes: as for B4
B7: Mb(NRAS_24) with the FG loop of SEQ ID NO: 63 (designed binder)
chain: B1 chain with I79S
notes: as for B4
B8: Mb(NRAS_24) with the FG loop of SEQ ID NO: 62 (designed binder)
chain: B1 chain with G80Y, A81Y
notes: as for B4
B9: Mb(NRAS_24) with the FG loop of SEQ ID NO: 56 (designed binder)
chain: B1 chain with G80R, A81Y
notes: as for B4
B10: Mb(NRAS_24) with the FG loop of SEQ ID NO: 67 (designed binder)
chain: B1 chain with V78Y, I79Y
notes: as for B4
B11: Mb(NRAS_24) with the FG loop of SEQ ID NO: 59 (designed binder)
chain: B1 chain with G80S, A81Y
notes: as for B4
B12: Mb(NRAS_24) with the FG loop of SEQ ID NO: 61 (designed binder)
chain: B1 chain with G80Y, A81H
notes: as for B4
B13: Mb(NRAS_24) with the FG loop of SEQ ID NO: 65 (designed binder)
chain: B1 chain with V78Y, I79H
notes: as for B4
B14: Mb(NRAS_24) with the FG loop of SEQ ID NO: 66 (designed binder)
chain: B1 chain with V78Y, I79V
notes: as for B4
B15: Mb(NRAS_24) with the FG loop of SEQ ID NO: 53 (designed binder)
chain: B1 chain with G80L, A81H
notes: as for B4
B16: Mb(NRAS_24) with the FG loop of SEQ ID NO: 60 (designed binder)
chain: B1 chain with G80T, A81H
notes: as for B4
B17: Mb(NRAS_24) with the FG loop of SEQ ID NO: 64 (designed binder)
chain: B1 chain with V78Y, I79E
notes: as for B4
B18: Mb(NRAS_24) with the FG loop of SEQ ID NO: 55 (designed binder)
chain: B1 chain with G80R, A81S
notes: as for B4

The binders below were run against T1, NRAS (human, UniProt P01111 1-174, limits assumed) (assay: BLI; biotinylated monobody on streptavidin tip, NRAS at 50, 25, 12.5 and 6.25 nM; global 1:1 fit; upper right panel, untitled on this sheet, NRAS(WT)·GTPγS by the layout of FIG. 2A).
T1 construct: also called Neuroblastoma-RAS; NRAS (WT)

Kd	Binder
0.52 nM	B1

Target: T1, NRAS
Experiment: as above
Remark: another data set of the same source

Kd	Binder
1.1 nM	B2

The binders below were run against T1, NRAS (assay: BLI; biotinylated monobody on streptavidin tip, NRAS(WT)·GTPγS at 50, 25, 12.5 and 6.25 nM; global 1:1 fit).

Kd	Binder
0.83 nM	B3

These binders were tested against T1, NRAS (assay: yeast display, cells sorted for binding to NRAS (WT);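 further: Yeast-displayed monobody variants with one or two residue substitutions, monobody sequences read from cells recovered by sorting for binding to wild-type NRAS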).

binding result	Binder
binds	B4
binds	B5
binds	B6
binds	B7
binds	B8
binds	B9
binds	B10
binds	B11
binds	B12
binds	B13
binds	B14
binds	B15
binds	B16
binds	B17
binds	B18

What follows are binders tested against T1, NRAS (assay: BLI; biotinylated monobody on streptavidin tip, NRAS(WT)·GDP at 50, 25, 12.5 and 6.25 nM; global 1:1 fit).

Kd	Binder
1.8 nM	B3

What follows are binders tested against T1, NRAS (assay: BLI; biotinylated monobody on streptavidin tip, NRAS at 50, 25, 12.5 and 6.25 nM; global 1:1 fit; upper left panel, untitled on this sheet, NRAS(WT)·GDP by the layout of FIG. 2A).

Kd	Binder
2.6 nM	B1

Target: T1, NRAS
Experiment: as above
Remark: another data set of the same source

Kd	Binder
3.3 nM	B2

These binders were tested against T2, NRAS (K135R) (human, UniProt P01111 1-174, limits assumed) (assay: BLI; sensorgrams at 100 nM and 25 nM with fit; nucleotide state not marked).
T2 construct: also called NRAS mutant with the H/KRAS-mimicking mutation K135R

Kd	Binder
6.6 nM	B3
5.6 nM	B1
9.5 nM	B2
